Assay results: PMC5461201

How the values were obtained:
[1] = biological target: FLAG-ADAR1p110-T/S-to-D (phosphomimetic mutant) (human); test: pull-down
[2] = biological target: FLAG-ADAR1p110-T/S-to-A (phosphorylation inhibitory mutant) (human); test: pull-down

- binding efficiency (judged from unbound His-Xpo5 in flow-through) [1]: 70%
- fold amount bound against ADAR1p110-T/S-to-A [1]: 10 to 20 fold
- binding efficiency (judged from unbound His-Xpo5 in flow-through) [2]: < 10%
Substance: Xpo5-RanGTP complex (His-Xpo5 with His-RanQ69L and GTP, preassembled with VARdm RNA) (from UniProt Q9HAV4 1-1204; P62826 1-216)
